Data taken from paper PMC9168619 (The Journal of Biological Chemistry, 2022).

Biological target: T1, Nup98 (human (endogenous in HeLa), UniProt P52948 1-880)
T1 construct: Nup98, the N-terminal product of the autoproteolytic cleavage of the Nup98-Nup96 precursor
T1 sequence (looked up): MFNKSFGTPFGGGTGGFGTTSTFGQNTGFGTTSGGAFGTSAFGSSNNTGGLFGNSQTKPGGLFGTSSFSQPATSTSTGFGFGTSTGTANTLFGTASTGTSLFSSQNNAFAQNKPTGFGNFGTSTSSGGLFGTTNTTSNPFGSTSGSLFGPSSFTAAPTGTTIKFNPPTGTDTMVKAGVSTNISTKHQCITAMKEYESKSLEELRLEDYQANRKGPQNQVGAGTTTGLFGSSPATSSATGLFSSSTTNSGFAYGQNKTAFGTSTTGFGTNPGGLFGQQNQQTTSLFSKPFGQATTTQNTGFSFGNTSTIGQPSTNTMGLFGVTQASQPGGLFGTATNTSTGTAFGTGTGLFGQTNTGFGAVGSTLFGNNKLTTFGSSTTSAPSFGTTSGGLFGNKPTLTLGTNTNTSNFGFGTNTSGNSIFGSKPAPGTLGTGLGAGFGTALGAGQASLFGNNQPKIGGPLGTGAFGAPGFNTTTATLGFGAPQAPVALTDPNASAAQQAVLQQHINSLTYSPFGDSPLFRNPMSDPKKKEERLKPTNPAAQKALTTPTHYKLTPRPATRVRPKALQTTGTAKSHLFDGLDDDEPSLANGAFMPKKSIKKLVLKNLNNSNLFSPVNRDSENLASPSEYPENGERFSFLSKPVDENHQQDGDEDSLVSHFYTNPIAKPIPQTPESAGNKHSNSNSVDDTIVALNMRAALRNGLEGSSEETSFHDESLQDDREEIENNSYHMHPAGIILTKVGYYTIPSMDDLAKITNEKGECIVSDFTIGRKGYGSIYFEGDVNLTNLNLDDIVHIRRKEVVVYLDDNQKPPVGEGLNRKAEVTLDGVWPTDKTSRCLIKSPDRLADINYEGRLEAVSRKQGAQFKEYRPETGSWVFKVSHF
Assay: […] 300 mM NaCl, 20 mM Hepes pH 7.4, 0.5% Triton X-100; +4 °C; […]
Details: partners not purified

B1: Rae1 (natural protein, human (endogenous in HeLa), UniProt P78406 1-368, looked up)
chain: MSLFGTTSGFGTSGTSMFGSATTDNHNPMKDIEVTSSPDDSIGCLSFSPPTLPGNFLIAGSWANDVRCWEVQDSGQTIPKAQQMHTGPVLDVCWSDDGSKVFTASCDKTAKMWDLSSNQAIQIAQHDAPVKTIHWIKAPNYSCVMTGSWDKTLKFWDTRSSNPMMVLQLPERCYCADVIYPMAVVATAERGLIVYQLENQPSEFRRIESPLKHQHRCVAIFKDKQNKPTGFALGSIEGRVAIHYINPPNPAKDNFTFKCHRSNGTNTSAPQDIYAVNGIAFHPVHGTLATVGSDGRFSFWDKDARTKLKTSEQLDQPISACCFNHNGNIFAYASSYDWSKGHEFYNPQKKNYIFLRNAAEELKPRNKK
notes: Rae1, shuttling mRNA export factor
stoichiometry N: ~1 Nup98:Rae1
